In patent US20230002480A1:

Assays:
[1] = biological target: HIV-1 93TH057 gp120 coree (HIV-1); assay: PDB 5te6 structure, PISA interface
[2] = biological target: HIV-1 Env of pseudovirus X1254_c3 (clade G) (HIV-1); assay: cell-based or functional assay
[3] = biological target: HIV-1 Env of pseudovirus Ce1172_H1 (clade C, T/F) (HIV-1); assay: cell-based or functional assay
[4] = biological target: HIV-1 Env of pseudovirus CNE20 (clade BC) (HIV-1); assay: cell-based or functional assay
[5] = biological target: HIV-1 Env of pseudovirus 191955_A11 (clade A, T/F) (HIV-1); assay: cell-based or functional assay
[6] = biological target: HIV-1 Env of pseudovirus PVO.4 (clade B) (HIV-1); assay: cell-based or functional assay
[7] = biological target: HIV-1 Env of pseudovirus Q259.d2.17 (clade A) (HIV-1); assay: cell-based or functional assay
[8] = biological target: HIV-1 Env of pseudovirus 6952.v1.c20 (clade CD) (HIV-1); assay: cell-based or functional assay
[9] = biological target: HIV-1 Env of pseudovirus X2088_c9 (clade G) (HIV-1); assay: cell-based or functional assay
[10] = biological target: HIV-1 Env of pseudovirus 3103.v3.c10 (clade ACD) (HIV-1); assay: cell-based or functional assay
[11] = biological target: HIV-1 Env of pseudovirus R1166.c01 (clade CRF01_AE) (HIV-1); assay: cell-based or functional assay
[12] = biological target: HIV-1 Env of pseudovirus CAP210.2.00.E8 (clade C) (HIV-1); assay: cell-based or functional assay
[13] = biological target: HIV-1 Env of pseudovirus Ce1086_B2 (clade C, T/F) (HIV-1); assay: cell-based or functional assay
[14] = biological target: HIV-1 Env of pseudovirus T250-4 (clade CRF02_AG) (HIV-1); assay: cell-based or functional assay
[15] = biological target: HIV-1 Env of pseudovirus Du422.1 (clade C) (HIV-1); assay: cell-based or functional assay
[16] = biological target: HIV-1 Env of pseudovirus AC10.0.29 (clade B) (HIV-1); assay: cell-based or functional assay
[17] = biological target: HIV-1 Env of pseudovirus 620345.c01 (clade CRF01_AE) (HIV-1); assay: cell-based or functional assay
[18] = biological target: HIV-1 Env of pseudovirus 3016.v5.c45 (clade D) (HIV-1); assay: cell-based or functional assay
[19] = biological target: HIV-1 Env of pseudovirus BJOX028000.10.3 (clade CRF01_AE, T/F) (HIV-1); assay: cell-based or functional assay
[20] = biological target: HIV-1 Env of pseudovirus Du172.17 (clade C) (HIV-1); assay: cell-based or functional assay
[21] = biological target: HIV-1 Env of pseudovirus 6545.v4.c1 (HIV-1); assay: cell-based or functional assay
[22] = biological target: HIV-1 Env of pseudovirus 62357_14_D3_4589 (clade B, T/F) (HIV-1); assay: cell-based or functional assay
[23] = biological target: MuLV Env pseudovirus (negative control) (MuLV); assay: cell-based or functional assay

N6 Fab
Ratio of OD/ID buried surface area [1]: 7.58
buried surface area, CDR H1 [1]: 38 Å^2
buried surface area, CDR H2 [1]: 621 Å^2
buried surface area, CDR L1 [1]: 43 Å^2
buried surface area, CDR L2 [1]: 0 Å^2
buried surface area, CDR L3 [1]: 172 Å^2
buried surface area, CDRH3 [1]: 123 Å^2
buried surface area, Fab heavy and light chain total [1]: 1180 Å^2
buried surface area, Fab heavy chain total [1]: 928 Å^2
buried surface area, Fab light chain total [1]: 251 Å^2
buried surface area, gp120 CD4 binding loop of OD [1]: 206 Å^2
buried surface area, gp120 Loop D of OD [1]: 332 Å^2
buried surface area, gp120 Loop V5 of OD [1]: 339 Å^2
buried surface area, gp120 inner domain (ID) [1]: 132 Å^2
buried surface area, gp120 outer domain (OD) [1]: 1000 Å^2
buried surface area, gp120 total [1]: 1130 Å^2
buried surface area, heavy chain FWR [1]: 146 Å^2
buried surface area, light chain FWR [1]: 36 Å^2

N49P7-54TY (antibody)
IC50, titer in TZM.bl cells [2]: 0.145 µg/mL
IC80, titer in TZM.bl cells [2]: 0.599 µg/mL
MPI [2]: 100
IC50, titer in TZM.bl cells [3]: > 25 µg/mL
IC80, titer in TZM.bl cells [3]: > 25 µg/mL
MPI [3]: 23
IC50, titer in TZM.bl cells [4]: 0.046 µg/mL
IC80, titer in TZM.bl cells [4]: 0.16 µg/mL
MPI [4]: 100
IC50, titer in TZM.bl cells [5]: 3.04 µg/mL
IC80, titer in TZM.bl cells [5]: > 25 µg/mL
MPI [5]: 72
IC50, titer in TZM.bl cells [6]: 0.079 µg/mL
IC80, titer in TZM.bl cells [6]: 0.314 µg/mL
MPI [6]: 100
IC50, titer in TZM.bl cells [7]: 0.132 µg/mL
IC80, titer in TZM.bl cells [7]: 1.13 µg/mL
MPI [7]: 95
IC50, titer in TZM.bl cells [8]: > 25 µg/mL
IC80, titer in TZM.bl cells [8]: > 25 µg/mL
MPI [8]: 20
IC50, titer in TZM.bl cells [9]: 0.172 µg/mL
IC80, titer in TZM.bl cells [9]: 0.572 µg/mL
MPI [9]: 100
IC50, titer in TZM.bl cells [10]: 0.151 µg/mL
IC80, titer in TZM.bl cells [10]: 0.55 µg/mL
MPI [10]: 100
IC50, titer in TZM.bl cells [11]: 0.131 µg/mL
IC80, titer in TZM.bl cells [11]: 0.47 µg/mL
MPI [11]: 100
IC50, titer in TZM.bl cells [12]: 0.691 µg/mL
IC80, titer in TZM.bl cells [12]: 3.33 µg/mL
MPI [12]: 97
IC50, titer in TZM.bl cells [13]: 0.067 µg/mL
IC80, titer in TZM.bl cells [13]: 0.339 µg/mL
MPI [13]: 100
IC50, titer in TZM.bl cells [14]: 1.02 µg/mL
IC80, titer in TZM.bl cells [14]: 19.6 µg/mL
MPI [14]: 83
IC50, titer in TZM.bl cells [15]: 0.402 µg/mL
IC80, titer in TZM.bl cells [15]: 2.02 µg/mL
MPI [15]: 96
IC50, titer in TZM.bl cells [16]: > 25 µg/mL
IC80, titer in TZM.bl cells [16]: > 25 µg/mL
MPI [16]: 40
IC50, titer in TZM.bl cells [17]: > 25 µg/mL
IC80, titer in TZM.bl cells [17]: > 25 µg/mL
MPI [17]: 0
IC50, titer in TZM.bl cells [18]: 0.206 µg/mL
IC80, titer in TZM.bl cells [18]: 1.91 µg/mL
MPI [18]: 92
IC50, titer in TZM.bl cells [19]: 0.009 µg/mL
IC80, titer in TZM.bl cells [19]: 0.044 µg/mL
MPI [19]: 100
IC50, titer in TZM.bl cells [20]: 0.124 µg/mL
IC80, titer in TZM.bl cells [20]: 0.529 µg/mL
MPI [20]: 100
IC50, titer in TZM.bl cells [21]: 3.01 µg/mL
IC80, titer in TZM.bl cells [21]: > 25 µg/mL
MPI [21]: 74
IC50, titer in TZM.bl cells [22]: 0.055 µg/mL
IC80, titer in TZM.bl cells [22]: 0.192 µg/mL
MPI [22]: 100
IC50, titer in TZM.bl cells [23]: > 25 µg/mL
IC80, titer in TZM.bl cells [23]: > 25 µg/mL
MPI [23]: 0
